In US20090069215A1, “Acylated Single Chain Insulin” (Novo Nordisk A/S, priority 2006, published 2009):

Legend:
[1] = molecular target: purified recombinant human insulin receptor-exon 11 (human) (UniProt P06213); test: assay (I): SPA competition, displacement of A14 Tyr[125I]-human insulin from recombinant human insulin receptor; reference human insulin
[2] = molecular target: human insulin receptor (Homo sapiens, UniProt P06213); test: Insulin receptor binding, SPA antibody capture assay (assay (I)); details: recombinant human insulin receptor - exon 11, A14 Tyr[125I]-human insulin tracer, human insulin = 100%
Procedure: Insulin Receptor Binding of the Acylated, Single-Chain Insulin
The affinity of the acylated, single-chain insulins for the human insulin receptor can be determined by a SPA assay (Scintillation Proximity Assay) microtiterplate antibody capture assay. SPA-PVT antibody-binding beads, anti-mouse reagent (Amersham Biosciences, Cat No. PRNQ0017) are mixed with 25 ml of binding buffer (100 mM HEPES pH 7.8; 100 mM sodium chloride, 10 mM MgSO4, 0.025% Tween-20). Reagent mix for a single Packard Optiplate (Packard No. 6005190) is composed of 2.4 μl of a 1:5000 diluted purified recombinant human insulin receptor—exon 11, an amount of a stock solution of A14 Tyr[125I]-human insulin corresponding to 5000 cpm per 100 μl of reagent mix, 12 μl of a 1:1000 dilution of F12 antibody, 3 ml of SPA-beads and binding buffer to a total of 12 ml. A total of 100 μl is then added and a dilution series is made from appropriate samples. To the dilution series is then added 100 μl of reagent mix and the samples are incubated for 16 hours while gently shaken. The phases are then separated by centrifugation for 1 min and the plates counted in a Topcounter. The binding data are fitted using the nonlinear regression algorithm in the GraphPad Prism 2.01 (GraphPad Software, San Diego, Calif.).

Sequence of purified recombinant human insulin receptor-exon 11 (human) (P06213 other isoform, or with tags, fused parts or gaps limits assumed, form in doubt): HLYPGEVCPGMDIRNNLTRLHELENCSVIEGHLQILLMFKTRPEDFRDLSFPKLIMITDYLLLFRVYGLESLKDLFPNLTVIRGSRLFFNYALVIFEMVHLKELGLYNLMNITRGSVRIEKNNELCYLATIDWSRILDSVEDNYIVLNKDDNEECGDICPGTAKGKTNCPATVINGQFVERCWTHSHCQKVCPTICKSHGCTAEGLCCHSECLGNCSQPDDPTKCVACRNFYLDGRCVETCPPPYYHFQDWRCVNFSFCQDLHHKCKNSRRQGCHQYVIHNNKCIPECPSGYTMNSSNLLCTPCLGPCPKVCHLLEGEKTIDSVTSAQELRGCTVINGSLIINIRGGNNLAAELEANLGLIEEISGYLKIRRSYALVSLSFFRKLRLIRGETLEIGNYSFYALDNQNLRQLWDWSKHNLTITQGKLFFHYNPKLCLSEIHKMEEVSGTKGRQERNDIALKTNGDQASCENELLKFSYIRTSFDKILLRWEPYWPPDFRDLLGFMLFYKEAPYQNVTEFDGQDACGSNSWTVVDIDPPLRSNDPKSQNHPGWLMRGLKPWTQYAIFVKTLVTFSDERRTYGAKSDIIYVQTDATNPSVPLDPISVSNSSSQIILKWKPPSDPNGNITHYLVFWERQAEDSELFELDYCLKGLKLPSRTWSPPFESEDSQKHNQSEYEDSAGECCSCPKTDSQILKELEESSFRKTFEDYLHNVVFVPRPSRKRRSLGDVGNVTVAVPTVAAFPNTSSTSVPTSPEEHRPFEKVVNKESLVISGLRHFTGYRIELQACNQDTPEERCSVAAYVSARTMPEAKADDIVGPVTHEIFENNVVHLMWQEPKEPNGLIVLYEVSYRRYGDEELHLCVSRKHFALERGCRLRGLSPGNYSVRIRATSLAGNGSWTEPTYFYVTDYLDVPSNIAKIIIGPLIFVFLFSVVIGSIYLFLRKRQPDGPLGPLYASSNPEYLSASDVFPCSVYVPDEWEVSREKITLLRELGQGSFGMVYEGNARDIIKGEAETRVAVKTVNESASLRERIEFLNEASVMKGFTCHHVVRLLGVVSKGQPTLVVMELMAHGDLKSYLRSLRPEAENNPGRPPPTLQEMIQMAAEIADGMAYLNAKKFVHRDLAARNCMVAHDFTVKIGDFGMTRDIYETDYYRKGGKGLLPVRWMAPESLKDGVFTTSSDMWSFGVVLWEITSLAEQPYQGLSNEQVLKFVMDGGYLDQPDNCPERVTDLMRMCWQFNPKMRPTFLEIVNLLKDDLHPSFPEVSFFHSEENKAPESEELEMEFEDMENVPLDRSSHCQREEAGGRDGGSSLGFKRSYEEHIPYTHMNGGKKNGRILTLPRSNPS
Sequence of human insulin receptor (P06213 28-746 isoform P06213-2 limits assumed): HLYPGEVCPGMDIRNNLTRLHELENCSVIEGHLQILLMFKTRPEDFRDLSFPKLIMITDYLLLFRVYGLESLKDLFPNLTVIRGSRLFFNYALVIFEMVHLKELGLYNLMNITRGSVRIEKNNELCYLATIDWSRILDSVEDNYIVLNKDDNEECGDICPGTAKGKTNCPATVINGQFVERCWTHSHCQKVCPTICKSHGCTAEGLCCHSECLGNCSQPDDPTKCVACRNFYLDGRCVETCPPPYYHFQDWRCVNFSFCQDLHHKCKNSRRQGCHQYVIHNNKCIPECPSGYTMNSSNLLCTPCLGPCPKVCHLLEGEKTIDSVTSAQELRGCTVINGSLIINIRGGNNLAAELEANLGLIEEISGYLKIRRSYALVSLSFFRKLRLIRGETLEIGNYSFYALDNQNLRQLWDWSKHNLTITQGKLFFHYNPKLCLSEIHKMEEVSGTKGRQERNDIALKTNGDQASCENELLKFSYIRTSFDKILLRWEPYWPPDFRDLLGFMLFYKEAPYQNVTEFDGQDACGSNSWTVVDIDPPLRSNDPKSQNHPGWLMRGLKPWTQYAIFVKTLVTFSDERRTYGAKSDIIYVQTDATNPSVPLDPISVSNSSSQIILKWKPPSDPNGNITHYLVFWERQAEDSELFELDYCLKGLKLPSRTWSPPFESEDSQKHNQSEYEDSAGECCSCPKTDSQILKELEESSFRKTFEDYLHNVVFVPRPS
Sequence of human insulin receptor (P06213 763-1382 partner limits assumed): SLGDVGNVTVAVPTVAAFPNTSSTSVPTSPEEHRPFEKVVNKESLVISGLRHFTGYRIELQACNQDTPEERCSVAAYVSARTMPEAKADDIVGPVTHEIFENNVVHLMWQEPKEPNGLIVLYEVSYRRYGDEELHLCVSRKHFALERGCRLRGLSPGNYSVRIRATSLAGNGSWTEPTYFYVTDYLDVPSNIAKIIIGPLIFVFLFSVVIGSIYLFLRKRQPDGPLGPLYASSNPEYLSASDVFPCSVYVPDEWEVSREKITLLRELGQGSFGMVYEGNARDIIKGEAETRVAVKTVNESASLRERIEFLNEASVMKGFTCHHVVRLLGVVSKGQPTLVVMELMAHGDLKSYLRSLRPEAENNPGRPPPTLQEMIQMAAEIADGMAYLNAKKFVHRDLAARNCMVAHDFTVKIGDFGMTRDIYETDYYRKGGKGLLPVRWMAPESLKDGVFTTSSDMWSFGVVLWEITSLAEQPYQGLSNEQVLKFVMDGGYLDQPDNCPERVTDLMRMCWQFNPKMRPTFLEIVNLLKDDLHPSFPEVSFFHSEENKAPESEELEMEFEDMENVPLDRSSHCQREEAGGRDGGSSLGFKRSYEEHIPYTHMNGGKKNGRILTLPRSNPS

Question: With “B(1-29)-B22K((eps)hexadecandioyl-gGlu)-B29H-TGLGSGR-A(1-21)-A18Q-A21G Human insulin (from UniProt P01308 25-53; P01308 90-110) (ligand)” as the substance, how does the insulin receptor binding relative to that of human insulin [1] read?
Answer: Its insulin receptor binding relative to that of human insulin is 46%.

Question: For “B(1-29)-B22K((eps)hexadecandioyl-gGlu)-B29H-TGLGSGR-A(1-21)-A18Q-A21G Human insulin [Example 4]”, which “insulin receptor binding relative to that of human insulin” value [2] is on record?
Answer: The value was 46%.

Question: For “B(1-29)-B22K((eps)hexadecandioyl-gGlu)-B29Q-TGLGSGR-A(1-21)-A18Q-A21G Human insulin (from UniProt P01308 25-53; P01308 90-110) (ligand)”, which insulin receptor binding relative to that of human insulin [1] is on record?
Answer: Its insulin receptor binding relative to that of human insulin is 154%.

Question: For “B(1-29)-B22K((eps)hexadecandioyl-gGlu)-B29Q-TGLGSGR-A(1-21)-A18Q-A21G Human insulin [Example 5]”, which “insulin receptor binding relative to that of human insulin” value [2] is on record?
Answer: Its value is 154%.

Question: For “B(1-29)-B22K((eps)myristoyl)-B29A-VGLSSGQ-A(1-21)-A18Q Human Insulin (from UniProt P01308 25-53; P01308 90-110) (ligand)”, which insulin receptor binding relative to that of human insulin [1] is on record?
Answer: Its insulin receptor binding relative to that of human insulin is 46%.

Question: Which “insulin receptor binding relative to that of human insulin” value [2] does the source give for “B(1-29)-B22K((eps)myristoyl)-B29A-VGLSSGQ-A(1-21)-A18Q Human Insulin [Example 1]” here?
Answer: Its value is 46%.

Question: For “B(1-29)-B22K(N(eps)heptadecandioyl)-B29H-TGLGSGR-A(1-21)-A18Q-A21G Human insulin (from UniProt P01308 25-53; P01308 90-110) (ligand)”, which insulin receptor binding relative to that of human insulin [1] is on record?
Answer: Its insulin receptor binding relative to that of human insulin is 119%.

Question: For “B(1-29)-B22K(N(eps)heptadecandioyl)-B29H-TGLGSGR-A(1-21)-A18Q-A21G Human insulin [Example 7]”, which “insulin receptor binding relative to that of human insulin” value [2] is on record?
Answer: The value was 119%.

Question: How did the insulin receptor binding relative to that of human insulin [1] turn out when “B(1-29)-B22K(N(eps)heptadecandioyl-g-L-Glu)-B29H-TGLGSGR-A(1-21)-A18Q-A21G Human insulin (from UniProt P01308 25-53; P01308 90-110) (ligand)” was run?
Answer: The insulin receptor binding relative to that of human insulin was 53%.

Question: For “B(1-29)-B22K(N(eps)heptadecandioyl-g-L-Glu)-B29H-TGLGSGR-A(1-21)-A18Q-A21G Human insulin [Example 8]”, which “insulin receptor binding relative to that of human insulin” value [2] is on record?
Answer: The value was 53%.

Question: With “B(1-29)-B22K(N(eps)hexadecandioyl-g-L-Glu-amide)-B29H-TGLGSGR-A(1-21)-A18Q-A21G Human insulin (from UniProt P01308 25-53; P01308 90-110) (ligand)” as the substance, how does the insulin receptor binding relative to that of human insulin [1] read?
Answer: Its insulin receptor binding relative to that of human insulin is 105%.

Question: How did the “insulin receptor binding relative to that of human insulin” value [2] turn out when “B(1-29)-B22K(N(eps)hexadecandioyl-g-L-Glu-amide)-B29H-TGLGSGR-A(1-21)-A18Q-A21G Human insulin [Example 6]” was run?
Answer: The value was 105%.

Question: With “B(1-29)-B22K(N(eps)hexadecandioyl-gGlu)-B29A-VGLSSGQ-A(1-21)-A18Q Human Insulin (from UniProt P01308 25-53; P01308 90-110) (ligand)” as the substance, how does the insulin receptor binding relative to that of human insulin [1] read?
Answer: The insulin receptor binding relative to that of human insulin was 64%.

Question: For “B(1-29)-B22K(N(eps)hexadecandioyl-gGlu)-B29A-VGLSSGQ-A(1-21)-A18Q Human Insulin [Example 3]”, which “insulin receptor binding relative to that of human insulin” value [2] is on record?
Answer: Its value is 64%.

Question: How did the insulin receptor binding relative to that of human insulin [1] turn out when “B(1-29)-B22K(N(eps)octadecandioyl)-B29A-VGLSSGQ-A(1-21)-A18Q Human Insulin (from UniProt P01308 25-53; P01308 90-110) (ligand)” was run?
Answer: The insulin receptor binding relative to that of human insulin was 16%.

Question: Which “insulin receptor binding relative to that of human insulin” value [2] does the source give for “B(1-29)-B22K(N(eps)octadecandioyl)-B29A-VGLSSGQ-A(1-21)-A18Q Human Insulin [Example 2]” here?
Answer: Its value is 16%.
